Results reported in publication PMC9482650, “Quantitative fragmentomics allow affinity mapping of interactomes” (Nature Communications, 2022).

Key:
Test in all cases: holdup assay
Set-up in all cases: key: below the threshold = too weak to quantify, mostly under pKd 3.1 to 4
[1] = molecular target: Inadl_2, Q8NI35
[2] = molecular target: PDLIM1, O00151
[3] = molecular target: TJP1_3, Q07157
[4] = molecular target: T1, APBA2_1, Q99767
T1 sequence (Q99767 563-664, limits assumed, looked up): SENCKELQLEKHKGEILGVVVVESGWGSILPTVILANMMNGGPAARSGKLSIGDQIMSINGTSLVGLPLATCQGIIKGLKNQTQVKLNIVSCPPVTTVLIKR

[5] = molecular target: T2, GRIP1_7, Q9Y3R0
T2 sequence (Q9Y3R0 999-1096, limits assumed, looked up): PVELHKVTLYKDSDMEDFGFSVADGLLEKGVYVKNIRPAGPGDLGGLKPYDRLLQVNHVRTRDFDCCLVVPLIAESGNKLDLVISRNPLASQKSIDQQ

[6] = molecular target: GRIP2_4, Q9C0E4
[7] = molecular target: GRIP2_6, Q9C0E4
[8] = molecular target: T3, MPP6, Q9NZW5
T3 sequence (Q9NZW5 125-219, limits assumed, looked up): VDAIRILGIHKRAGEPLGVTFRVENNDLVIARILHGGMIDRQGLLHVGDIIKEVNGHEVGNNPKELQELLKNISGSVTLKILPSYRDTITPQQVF

[9] = molecular target: T4, TIAM2, Q8IVF5
T4 sequence (Q8IVF5 885-986, limits assumed, looked up): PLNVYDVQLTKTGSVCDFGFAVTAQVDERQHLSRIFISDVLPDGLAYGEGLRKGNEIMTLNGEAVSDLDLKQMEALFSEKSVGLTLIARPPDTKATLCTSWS

[10] = molecular target: T5, RAPGEF6, Q8TEU7
T5 sequence (Q8TEU7 525-625, limits assumed, looked up): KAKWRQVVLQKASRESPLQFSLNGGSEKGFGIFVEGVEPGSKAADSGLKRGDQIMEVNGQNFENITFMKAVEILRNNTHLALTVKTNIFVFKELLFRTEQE

[11] = molecular target: LIMK2, P53671
[12] = molecular target: DLG5_1, Q8TDM6
[13] = molecular target: T6, SNTG1, Q9NSN8
T6 sequence (Q9NSN8 52-150, limits assumed, looked up): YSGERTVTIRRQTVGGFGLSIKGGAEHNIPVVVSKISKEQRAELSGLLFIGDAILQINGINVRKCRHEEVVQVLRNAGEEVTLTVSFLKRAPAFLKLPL

[14] = molecular target: T7, SNTB1, Q13884
T7 sequence (Q13884 107-205, limits assumed, looked up): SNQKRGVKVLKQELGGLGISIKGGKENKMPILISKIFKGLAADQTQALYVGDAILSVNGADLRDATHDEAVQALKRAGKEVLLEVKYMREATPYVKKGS

[15] = molecular target: DLG4_1, P78352
[16] = molecular target: T8, PDZD2_2, O15018
T8 sequence (O15018 329-429, limits assumed, looked up): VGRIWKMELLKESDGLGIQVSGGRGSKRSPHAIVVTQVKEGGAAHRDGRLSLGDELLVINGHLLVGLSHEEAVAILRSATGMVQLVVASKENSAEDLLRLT

[17] = molecular target: T9, LNX2_3, Q8N448
T9 sequence (Q8N448 463-564, limits assumed, looked up): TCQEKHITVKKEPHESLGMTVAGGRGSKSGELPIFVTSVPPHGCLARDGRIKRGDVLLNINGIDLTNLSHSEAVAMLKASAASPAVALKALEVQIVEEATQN

[18] = molecular target: Inadl_3, Q8NI35
[19] = molecular target: T10, APBA3_1, O96018
T10 sequence (O96018 389-490, limits assumed, looked up): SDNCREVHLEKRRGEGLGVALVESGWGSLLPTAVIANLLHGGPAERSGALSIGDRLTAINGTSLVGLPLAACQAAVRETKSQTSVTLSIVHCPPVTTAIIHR

[20] = molecular target: Inadl_5, Q8NI35
[21] = molecular target: FRMPD2_2, Q68DX3
[22] = molecular target: T11, RADIL, Q96JH8
T11 sequence (Q96JH8 971-1071, limits assumed, looked up): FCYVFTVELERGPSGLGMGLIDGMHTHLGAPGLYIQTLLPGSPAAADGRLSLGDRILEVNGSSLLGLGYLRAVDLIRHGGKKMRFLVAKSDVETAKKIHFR

[23] = molecular target: T12, HTRA4, P83105
T12 sequence (P83105 378-476, limits assumed, looked up): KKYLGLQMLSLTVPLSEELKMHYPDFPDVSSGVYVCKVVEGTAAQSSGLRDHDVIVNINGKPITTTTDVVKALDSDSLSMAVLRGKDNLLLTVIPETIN

[24] = molecular target: GRIP2_5, Q9C0E4
[25] = molecular target: DLG1_1, Q12959
[26] = plain residues with an end cap or a label only (N-terminal biotin on a linker: (peg)3)
[27] = plain residues with an end cap or a label only (N-terminal biotin on a linker: ado-ado)

Sequence of GRIP2_4, Q9C0E4 (Q9C0E4 446-548): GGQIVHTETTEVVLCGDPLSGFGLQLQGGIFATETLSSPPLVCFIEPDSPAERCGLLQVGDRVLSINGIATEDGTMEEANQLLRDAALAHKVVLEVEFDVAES
Sequence of Inadl_5, Q8NI35 (Q8NI35 673-780): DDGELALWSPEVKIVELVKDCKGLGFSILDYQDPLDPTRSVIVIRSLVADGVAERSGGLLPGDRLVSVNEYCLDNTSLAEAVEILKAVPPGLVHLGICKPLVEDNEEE
Sequence of FRMPD2_2, Q68DX3 (Q68DX3 944-1038): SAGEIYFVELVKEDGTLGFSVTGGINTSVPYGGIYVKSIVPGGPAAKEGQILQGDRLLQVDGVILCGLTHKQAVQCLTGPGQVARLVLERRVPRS
Sequence of LIMK2, P53671 (P53671 143-248): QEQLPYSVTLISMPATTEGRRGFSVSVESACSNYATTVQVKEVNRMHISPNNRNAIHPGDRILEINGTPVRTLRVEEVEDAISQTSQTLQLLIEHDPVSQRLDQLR
Sequence of TJP1_3, Q07157 (Q07157 416-512): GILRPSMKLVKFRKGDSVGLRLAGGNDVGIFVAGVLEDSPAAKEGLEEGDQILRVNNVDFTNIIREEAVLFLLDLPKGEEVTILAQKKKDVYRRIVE
Sequence of Inadl_2, Q8NI35 (Q8NI35 238-335): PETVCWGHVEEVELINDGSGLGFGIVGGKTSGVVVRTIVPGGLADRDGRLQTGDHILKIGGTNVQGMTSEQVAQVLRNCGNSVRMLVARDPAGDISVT
Sequence of GRIP2_5, Q9C0E4 (Q9C0E4 544-642): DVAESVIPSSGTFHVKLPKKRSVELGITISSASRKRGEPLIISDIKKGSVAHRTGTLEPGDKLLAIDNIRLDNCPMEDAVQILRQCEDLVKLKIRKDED
Sequence of GRIP2_6, Q9C0E4 (Q9C0E4 648-740): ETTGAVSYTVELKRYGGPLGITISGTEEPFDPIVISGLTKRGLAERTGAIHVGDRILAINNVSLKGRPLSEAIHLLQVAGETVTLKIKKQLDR
Sequence of DLG5_1, Q8TDM6 (Q8TDM6 617-713): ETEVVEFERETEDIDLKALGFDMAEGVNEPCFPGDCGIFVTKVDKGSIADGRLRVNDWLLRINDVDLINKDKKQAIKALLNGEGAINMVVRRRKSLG
Sequence of Inadl_3, Q8NI35 (Q8NI35 359-469): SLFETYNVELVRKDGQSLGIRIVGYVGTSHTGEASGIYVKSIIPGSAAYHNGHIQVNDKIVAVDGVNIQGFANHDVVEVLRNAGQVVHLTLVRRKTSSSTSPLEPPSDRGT
Sequence of PDLIM1, O00151 (O00151 1-87): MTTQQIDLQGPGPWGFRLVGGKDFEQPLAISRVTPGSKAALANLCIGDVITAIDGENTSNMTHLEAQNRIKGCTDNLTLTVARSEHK
Sequence of DLG4_1, P78352 (P78352 62-152): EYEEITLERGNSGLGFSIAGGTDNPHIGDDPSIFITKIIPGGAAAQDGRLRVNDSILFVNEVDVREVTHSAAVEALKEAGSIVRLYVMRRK

For NLNSSEGVPDLLV [SARS-CoV-E, P59637], the pKd [1, 26] was “below the threshold”, the pKd [2, 26] was “below the threshold” and the pKd [3, 26] was “below the threshold”. The pKd [4, 26] was “below the threshold”, the pKd [5, 26] was 4.04 and the pKd [6, 26] was “below the threshold”. The pKd [7, 26] was “below the threshold”, the pKd [8, 26] was “below the threshold” and the pKd [9, 26] was “below the threshold”. The pKd [10, 26] was “below the threshold”, the pKd [11, 26] was “below the threshold” and the pKd [12, 26] was “below the threshold”. For the same binder, the pKd [13, 26] was “below the threshold”, the pKd [14, 26] was “below the threshold” and the pKd [15, 26] was “below the threshold”. The pKd [16, 26] was “below the threshold”, the pKd [17, 26] was “below the threshold” and the pKd [18, 26] was “below the threshold”. For the same binder, the pKd [19, 26] was “below the threshold”, the pKd [20, 26] was “below the threshold” and the pKd [21, 26] was “below the threshold”. The pKd [22, 26] was “below the threshold”, the pKd [23, 26] was “below the threshold” and the pKd [24, 26] was “below the threshold”. The pKd [25, 26] was “below the threshold”.

For QKNRKAQEDL [CES3, Q6UWW8], the pKd [1, 27] was “below the threshold”, the pKd [2, 27] was “below the threshold” and the pKd [3, 27] was “below the threshold”. The pKd [4, 27] was “below the threshold”, the pKd [5, 27] was “below the threshold” and the pKd [6, 27] was “below the threshold”. The pKd [7, 27] was “below the threshold”, the pKd [8, 27] was “below the threshold” and the pKd [9, 27] was 4.08. The pKd [10, 27] was “below the threshold”, the pKd [11, 27] was “below the threshold” and the pKd [12, 27] was “below the threshold”. The pKd [13, 27] was “below the threshold”, the pKd [14, 27] was “below the threshold” and the pKd [15, 27] was “below the threshold”. For the same binder, the pKd [16, 27] was “below the threshold”, the pKd [17, 27] was “below the threshold” and the pKd [18, 27] was “below the threshold”. The pKd [19, 27] was “below the threshold”, the pKd [20, 27] was “below the threshold” and the pKd [21, 27] was “below the threshold”. For the same binder, the pKd [22, 27] was “below the threshold”, the pKd [23, 27] was “below the threshold” and the pKd [24, 27] was “below the threshold”. For the same binder, the pKd [25, 27] was “below the threshold”.

In the case of DDEDRLVIEI [ZNF831, Q5JPB2], the pKd [1, 27] is reported as 3.57, the pKd [2, 27] is reported as “below the threshold” and the pKd [3, 27] is reported as “below the threshold”. The pKd [4, 27] was “below the threshold”, the pKd [5, 27] was “below the threshold” and the pKd [6, 27] was “below the threshold”. For the same binder, the pKd [7, 27] was “below the threshold”, the pKd [8, 27] was “below the threshold” and the pKd [9, 27] was 3.9. The pKd [10, 27] was “below the threshold”, the pKd [11, 27] was “below the threshold” and the pKd [12, 27] was “below the threshold”. For the same binder, the pKd [13, 27] was “below the threshold”, the pKd [14, 27] was “below the threshold” and the pKd [15, 27] was “below the threshold”. The pKd [16, 27] was 3.75, the pKd [17, 27] was “below the threshold” and the pKd [18, 27] was 4.8. For the same binder, the pKd [19, 27] was “below the threshold”, the pKd [20, 27] was “below the threshold” and the pKd [21, 27] was “below the threshold”. For the same binder, the pKd [22, 27] was 4.02, the pKd [23, 27] was 4.97 and the pKd [24, 27] was “below the threshold”. For the same binder, the pKd [25, 27] was “below the threshold”.

With PKRSFIESNV [TANC1, Q9C0D5] the pKd [1, 27] was “below the threshold”, the pKd [2, 27] was “below the threshold” and the pKd [3, 27] was “below the threshold”. The pKd [4, 27] was “below the threshold”, the pKd [5, 27] was “below the threshold” and the pKd [6, 27] was “below the threshold”. For the same binder, the pKd [7, 27] was “below the threshold”, the pKd [8, 27] was 3.76 and the pKd [9, 27] was “below the threshold”. For the same binder, the pKd [10, 27] was “below the threshold”, the pKd [11, 27] was “below the threshold” and the pKd [12, 27] was “below the threshold”. The pKd [13, 27] was 4.95, the pKd [14, 27] was 5 and the pKd [15, 27] was 4.73. For the same binder, the pKd [16, 27] was 4.81, the pKd [17, 27] was “below the threshold” and the pKd [18, 27] was 3.56. For the same binder, the pKd [19, 27] was “below the threshold”, the pKd [20, 27] was “below the threshold” and the pKd [21, 27] was 3.8. For the same binder, the pKd [22, 27] was 3.67, the pKd [23, 27] was 3.92 and the pKd [24, 27] was “below the threshold”. It also gave a pKd [25, 27] of 4.69.
